Positions of bridges follow the written chain, without caps; N, C: chain ends. Non-standard residues stand in square brackets, D forms with d. No end group written: not given here. Bph = 4,4'-bis(methyl)biphenyl crosslink between two cysteines (CL-1)
Key:
Assay in all cases: cell-based or functional assay
[1] = target: T1, human glucagon receptor (GCGR) (human, UniProt P47871 26-477)
[2] = target: T2, human glucagon-like peptide 1 receptor (GLP-1R) (human, UniProt P43220 24-463)
[3] = target: T2, human glucagon-like peptide 1 receptor …; remark: listed apart in the source
[4] = target: T1, human glucagon receptor (GCGR); remark: listed apart in the source

T1 sequence (P47871 26-477): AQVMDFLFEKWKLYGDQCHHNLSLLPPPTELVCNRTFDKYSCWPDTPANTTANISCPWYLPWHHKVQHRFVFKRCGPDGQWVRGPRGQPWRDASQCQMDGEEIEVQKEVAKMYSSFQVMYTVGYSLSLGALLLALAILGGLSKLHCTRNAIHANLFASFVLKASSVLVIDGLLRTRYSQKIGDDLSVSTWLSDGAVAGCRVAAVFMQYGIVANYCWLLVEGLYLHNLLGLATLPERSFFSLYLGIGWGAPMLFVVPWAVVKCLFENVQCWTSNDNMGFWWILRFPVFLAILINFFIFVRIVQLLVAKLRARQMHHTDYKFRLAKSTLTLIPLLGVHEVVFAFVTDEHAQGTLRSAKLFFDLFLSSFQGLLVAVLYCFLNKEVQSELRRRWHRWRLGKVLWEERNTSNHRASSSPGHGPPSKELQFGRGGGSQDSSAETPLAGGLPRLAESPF

| Agonist activity (nM), EC50, CRE-luciferase reporter in HEK293 cells overexpressing the receptor [1] | Agonist activity (nM), EC50, CRE-luciferase reporter in HEK293 cells overexpressing the receptor [3] | Binder | other results |
| --- | --- | --- | --- |
| 1000 nM |  | H[dS]QGTFTSDYSKYLDECAVRLFICWLMNTKRNRNNIA-NH2 (cysteine pairing not given here) [peptide 8] | fold higher potency against peptide 5, CRE-luciferase reporter assay [2]: > 80 fold |
| 0.7 nM | 0.2 nM | H[dS]QGTFTSDYSKYLDECAAKEFICWLMNTKRNRNNIA-NH2 (linker 17-24 via Bph) [peptide 9] | fold increase in activity against linear peptide 7, CRE-luciferase reporter assay [4]: 40 fold; fold increase in activity against linear peptide 7, CRE-luciferase reporter assay [2]: 80 fold |
| 3 nM | ~500 nM | H[dS]QGTFTSDYSKYLDS[dC]RAQDFVCWLMNTKRNRNNIA-NH2 (linker 17-24 via Bph) [peptide 3] | fold increase in activity against linear peptide 1, CRE-luciferase reporter assay [4]: 16 fold; fold increase in activity against linear peptide 1, CRE-luciferase reporter assay [2]: 2 fold |
|  | ~400 nM | H[dS]QGTFTSDYSKYLDECRAQDFVCWLMNTKRNRNNIA-NH2 (cysteine pairing not given here) [peptide 5] |  |

Further lines, the binder ahead of its results:

| Binder | Agonist activity (nM), EC50, CRE-luciferase reporter in HEK293 cells overexpressing the receptor [1] | Agonist activity (nM), EC50, CRE-luciferase reporter in HEK293 cells overexpressing the receptor [3] | other results |
| --- | --- | --- | --- |
| H[dS]QGTFTSDYSKYLDECAAKEFICWLMNTKRNRNNIA-NH2 (cysteine pairing not given here) [peptide 7] | 30 nM |  | fold higher potency against peptide 5, CRE-luciferase reporter assay [2]: > 80 fold |
| H[dS]QGTFTSDYSKYLDSCRAQDFVCWLMNTKRNRNNIA-NH2 (cysteine pairing not given here) [peptide 4] | 30 nM | ~500 nM | fold increase in activity against peptide 1, CRE-luciferase reporter assay [4]: ~2 fold; fold increase in activity against peptide 1, CRE-luciferase reporter assay [2]: ~2 fold |
| H[dS]QGTFTSDYSKYLDSRRAQ[dC]FVQWLMCTKRNRNNIA-NH2 (cysteine pairing not given here) [peptide 2] | > 1000 nM | > 2000 nM |  |

Reference: patent US20170196940A1 (RESEARCH FOUNDATION FOR THE STATE UNIVERSITY OF NEW YORK, published 2017)
